According to publication PMC6688830, “A Ubiquitin-Binding Domain that Binds a Structural Fold Distinct from that of Ubiquitin” (Structure(London, England:1993), 2019):

Key:
Details in all cases: both partners purified
Ubiquitin = target: T1, Ubiquitin (UniProt P0CG48 1-76); assay: ITC; MicroCal ITC200, 10°C; 120 μM SMARCAD1 CUE1 or CUE1,2 in the cell, 9.8 mM mono-Ub in the syringe; 10 mM Tris-HCl pH 7.9, 100 mM NaCl, 5 mM β-ME; One set of sites model
T1 construct: ubiquitin, monomeric, the cut product of a ubiquitin precursor; also called mono-Ub; monomeric ubiquitin; source: bought: Boston Biochem (purified recombinant)

KAP1 S33-K434 [1] = target: T2, KAP1 S33-K434 (human, UniProt Q13263 33-434); assay: ITC; MicroCal ITC200, 20°C; KAP1 RBCC (9-18 μM) in the cell, SMARCAD1 CUE1 or CUE1,2 (90-300 μM) in the syringe; 10 mM Tris-HCl pH 7.9, 100 mM NaCl, 5 mM β-ME; One set of sites model
T2 construct: KAP1 (TRIM28), human, UniProt Q13263, residues S33-K434 (RBCC domain); The crystal structures of shorter RBCC constructs show an antiparallel homodimer; also called KAP1 RBCC (S33-K434); KAP1 RBCC; source: E. coli BL-21 CodonPlus (DE3)-RP, purified (Ni-NTA, Ulp1, Mono Q)

KAP1 S33-K434 [2] = target: T2, KAP1 S33-K434; assay: co-IP; purified SMARCAD1 fragments (FLAG-CUE1,2, FLAG-CUE1) and KAP1 RBCC, 9.6μg each in 240μL, 4°C 1 hour; anti-FLAG M2 affinity gel 3 hours
FLAG-SMARCAD1 (WT) = target: T3, FLAG-SMARCAD1 (WT) (human, UniProt Q9H4L7 1-1026); assay: co-IP; purified full-length SMARCAD1 and KAP1 from E. coli, 7μg each in 280μL SK binding buffer, 200mM NaCl, 4°C; immunoprecipitated with anti-FLAG M2 affinity gel
T3 construct: SMARCAD1, human, UniProt Q9H4L7, full length; also called wild-type SMARCAD1; pET28a-SUMO-F-SMARCAD1; source: E. coli BL-21 CodonPlus (DE3)-RIL, purified (HisTrap, Ulp1, heparin, ProSwift SAX)
T3 sequence (looked up): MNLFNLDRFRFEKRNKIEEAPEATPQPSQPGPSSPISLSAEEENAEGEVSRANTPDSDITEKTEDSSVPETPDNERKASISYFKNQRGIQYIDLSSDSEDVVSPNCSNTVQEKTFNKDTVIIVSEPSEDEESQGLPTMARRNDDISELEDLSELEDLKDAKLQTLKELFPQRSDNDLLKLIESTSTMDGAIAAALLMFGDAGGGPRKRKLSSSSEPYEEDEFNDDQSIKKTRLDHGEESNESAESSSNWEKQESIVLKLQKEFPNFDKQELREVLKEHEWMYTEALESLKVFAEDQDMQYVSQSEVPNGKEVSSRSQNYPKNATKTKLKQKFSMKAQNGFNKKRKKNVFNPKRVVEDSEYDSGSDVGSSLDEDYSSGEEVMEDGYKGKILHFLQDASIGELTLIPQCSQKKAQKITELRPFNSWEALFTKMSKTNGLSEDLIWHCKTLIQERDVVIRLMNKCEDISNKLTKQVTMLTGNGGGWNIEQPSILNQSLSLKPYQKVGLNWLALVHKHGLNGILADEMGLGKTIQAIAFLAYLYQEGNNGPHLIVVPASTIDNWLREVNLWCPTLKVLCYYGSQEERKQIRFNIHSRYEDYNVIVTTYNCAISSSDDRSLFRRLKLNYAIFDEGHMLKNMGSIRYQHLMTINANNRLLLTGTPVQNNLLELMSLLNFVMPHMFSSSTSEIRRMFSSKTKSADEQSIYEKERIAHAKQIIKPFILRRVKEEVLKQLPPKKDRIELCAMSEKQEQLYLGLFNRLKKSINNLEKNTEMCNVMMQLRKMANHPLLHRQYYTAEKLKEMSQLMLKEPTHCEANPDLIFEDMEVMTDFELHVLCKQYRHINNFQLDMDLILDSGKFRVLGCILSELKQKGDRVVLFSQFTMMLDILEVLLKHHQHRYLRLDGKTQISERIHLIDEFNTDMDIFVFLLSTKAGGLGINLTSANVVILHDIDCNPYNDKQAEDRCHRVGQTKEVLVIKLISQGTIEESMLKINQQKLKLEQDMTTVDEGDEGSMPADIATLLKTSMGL

B1: FLAG-CUE1 (domain or fragment, human, UniProt Q9H4L7 95-237, looked up)
chain: SSDSEDVVSPNCSNTVQEKTFNKDTVIIVSEPSEDEESQGLPTMARRNDDISELEDLSELEDLKDAKLQTLKELFPQRSDNDLLKLIESTSTMDGAIAAALLMFGDAGGGPRKRKLSSSSEPYEEDEFNDDQSIKKTRLDHGE
notes: SMARCAD1, human, UniProt Q9H4L7, residues S95-E237 (first CUE domain); also called wild-type CUE1 fragment (S95-E237); SMARCAD1 CUE1; source: E. coli BL-21 CodonPlus (DE3)-RIL, purified (Ni-NTA, Ulp1, Mono Q if required)
Kd (Ubiquitin): ~952 µM | Kd (KAP1 S33-K434 [1]): ~0.158 µM

B2: FLAG-CUE1,2 P170A (domain or fragment, human, UniProt Q9H4L7 95-347, looked up)
chain: SSDSEDVVSPNCSNTVQEKTFNKDTVIIVSEPSEDEESQGLPTMARRNDDISELEDLSELEDLKDAKLQTLKELFAQRSDNDLLKLIESTSTMDGAIAAALLMFGDAGGGPRKRKLSSSSEPYEEDEFNDDQSIKKTRLDHGEESNESAESSSNWEKQESIVLKLQKEFPNFDKQELREVLKEHEWMYTEALESLKVFAEDQDMQYVSQSEVPNGKEVSSRSQNYPKNATKTKLKQKFSMKAQNGFNKKRKKN
notes: SMARCAD1, human, UniProt Q9H4L7, CUE1,2 fragment S95-N347; source: E. coli BL-21 CodonPlus (DE3)-RIL, purified (Ni-NTA, Ulp1, Mono Q if required)
binding result (KAP1 S33-K434 [2]): binds

B3: FLAG-CUE1,2 D188A (domain or fragment, human, UniProt Q9H4L7 95-347, looked up)
chain: SSDSEDVVSPNCSNTVQEKTFNKDTVIIVSEPSEDEESQGLPTMARRNDDISELEDLSELEDLKDAKLQTLKELFPQRSDNDLLKLIESTSTMAGAIAAALLMFGDAGGGPRKRKLSSSSEPYEEDEFNDDQSIKKTRLDHGEESNESAESSSNWEKQESIVLKLQKEFPNFDKQELREVLKEHEWMYTEALESLKVFAEDQDMQYVSQSEVPNGKEVSSRSQNYPKNATKTKLKQKFSMKAQNGFNKKRKKN
notes: as for B2
binding result (KAP1 S33-K434 [2]): binds

B4: FLAG-CUE1,2 L196A (domain or fragment, human, UniProt Q9H4L7 95-347, looked up)
chain: SSDSEDVVSPNCSNTVQEKTFNKDTVIIVSEPSEDEESQGLPTMARRNDDISELEDLSELEDLKDAKLQTLKELFPQRSDNDLLKLIESTSTMDGAIAAALAMFGDAGGGPRKRKLSSSSEPYEEDEFNDDQSIKKTRLDHGEESNESAESSSNWEKQESIVLKLQKEFPNFDKQELREVLKEHEWMYTEALESLKVFAEDQDMQYVSQSEVPNGKEVSSRSQNYPKNATKTKLKQKFSMKAQNGFNKKRKKN
notes: as for B2
binding result (KAP1 S33-K434 [2]): binds

B5: FLAG-CUE1,2 K161A (domain or fragment, human, UniProt Q9H4L7 95-347, looked up)
chain: SSDSEDVVSPNCSNTVQEKTFNKDTVIIVSEPSEDEESQGLPTMARRNDDISELEDLSELEDLKDAALQTLKELFPQRSDNDLLKLIESTSTMDGAIAAALLMFGDAGGGPRKRKLSSSSEPYEEDEFNDDQSIKKTRLDHGEESNESAESSSNWEKQESIVLKLQKEFPNFDKQELREVLKEHEWMYTEALESLKVFAEDQDMQYVSQSEVPNGKEVSSRSQNYPKNATKTKLKQKFSMKAQNGFNKKRKKN
notes: as for B2
binding result (KAP1 S33-K434 [2]): binds

B6: FLAG-CUE1,2 L195A (domain or fragment, human, UniProt Q9H4L7 95-347, looked up)
chain: SSDSEDVVSPNCSNTVQEKTFNKDTVIIVSEPSEDEESQGLPTMARRNDDISELEDLSELEDLKDAKLQTLKELFPQRSDNDLLKLIESTSTMDGAIAAAALMFGDAGGGPRKRKLSSSSEPYEEDEFNDDQSIKKTRLDHGEESNESAESSSNWEKQESIVLKLQKEFPNFDKQELREVLKEHEWMYTEALESLKVFAEDQDMQYVSQSEVPNGKEVSSRSQNYPKNATKTKLKQKFSMKAQNGFNKKRKKN
notes: as for B2
binding result (KAP1 S33-K434 [2]): binds

B7: FLAG-CUE1,2 E167A (domain or fragment, human, UniProt Q9H4L7 95-347, looked up)
chain: SSDSEDVVSPNCSNTVQEKTFNKDTVIIVSEPSEDEESQGLPTMARRNDDISELEDLSELEDLKDAKLQTLKALFPQRSDNDLLKLIESTSTMDGAIAAALLMFGDAGGGPRKRKLSSSSEPYEEDEFNDDQSIKKTRLDHGEESNESAESSSNWEKQESIVLKLQKEFPNFDKQELREVLKEHEWMYTEALESLKVFAEDQDMQYVSQSEVPNGKEVSSRSQNYPKNATKTKLKQKFSMKAQNGFNKKRKKN
notes: as for B2
binding result (KAP1 S33-K434 [2]): binds

B8: FLAG-CUE1,2 A192G (domain or fragment, human, UniProt Q9H4L7 95-347, looked up)
chain: SSDSEDVVSPNCSNTVQEKTFNKDTVIIVSEPSEDEESQGLPTMARRNDDISELEDLSELEDLKDAKLQTLKELFPQRSDNDLLKLIESTSTMDGAIGAALLMFGDAGGGPRKRKLSSSSEPYEEDEFNDDQSIKKTRLDHGEESNESAESSSNWEKQESIVLKLQKEFPNFDKQELREVLKEHEWMYTEALESLKVFAEDQDMQYVSQSEVPNGKEVSSRSQNYPKNATKTKLKQKFSMKAQNGFNKKRKKN
notes: as for B2
binding result (KAP1 S33-K434 [2]): binds

B9: FLAG-CUE1,2 K166A (domain or fragment, human, UniProt Q9H4L7 95-347, looked up)
chain: SSDSEDVVSPNCSNTVQEKTFNKDTVIIVSEPSEDEESQGLPTMARRNDDISELEDLSELEDLKDAKLQTLAELFPQRSDNDLLKLIESTSTMDGAIAAALLMFGDAGGGPRKRKLSSSSEPYEEDEFNDDQSIKKTRLDHGEESNESAESSSNWEKQESIVLKLQKEFPNFDKQELREVLKEHEWMYTEALESLKVFAEDQDMQYVSQSEVPNGKEVSSRSQNYPKNATKTKLKQKFSMKAQNGFNKKRKKN
notes: as for B2
binding result (KAP1 S33-K434 [2]): binds

B10: FLAG-CUE1,2 Q171A (domain or fragment, human, UniProt Q9H4L7 95-347, looked up)
chain: SSDSEDVVSPNCSNTVQEKTFNKDTVIIVSEPSEDEESQGLPTMARRNDDISELEDLSELEDLKDAKLQTLKELFPARSDNDLLKLIESTSTMDGAIAAALLMFGDAGGGPRKRKLSSSSEPYEEDEFNDDQSIKKTRLDHGEESNESAESSSNWEKQESIVLKLQKEFPNFDKQELREVLKEHEWMYTEALESLKVFAEDQDMQYVSQSEVPNGKEVSSRSQNYPKNATKTKLKQKFSMKAQNGFNKKRKKN
notes: as for B2
binding result (KAP1 S33-K434 [2]): binds

B11: HA-KAP1 (natural protein, human, UniProt Q13263 1-835, looked up)
chain: MAASAAAASAAAASAASGSPGPGEGSAGGEKRSTAPSAAASASASAAASSPAGGGAEALELLEHCGVCRERLRPEREPRLLPCLHSACSACLGPAAPAAANSSGDGGAAGDGTVVDCPVCKQQCFSKDIVENYFMRDSGSKAATDAQDANQCCTSCEDNAPATSYCVECSEPLCETCVEAHQRVKYTKDHTVRSTGPAKSRDGERTVYCNVHKHEPLVLFCESCDTLTCRDCQLNAHKDHQYQFLEDAVRNQRKLLASLVKRLGDKHATLQKSTKEVRSSIRQVSDVQKRVQVDVKMAILQIMKELNKRGRVLVNDAQKVTEGQQERLERQHWTMTKIQKHQEHILRFASWALESDNNTALLLSKKLIYFQLHRALKMIVDPVEPHGEMKFQWDLNAWTKSAEAFGKIVAERPGTNSTGPAPMAPPRAPGPLSKQGSGSSQPMEVQEGYGFGSGDDPYSSAEPHVSGVKRSRSGEGEVSGLMRKVPRVSLERLDLDLTADSQPPVFKVFPGSTTEDYNLIVIERGAAAAATGQPGTAPAGTPGAPPLAGMAIVKEEETEAAIGAPPTATEGPETKPVLMALAEGPGAEGPRLASPSGSTSSGLEVVAPEGTSAPGGGPGTLDDSATICRVCQKPGDLVMCNQCEFCFHLDCHLPALQDVPGEEWSCSLCHVLPDLKEEDGSLSLDGADSTGVVAKLSPANQRKCERVLLALFCHEPCRPLHQLATDSTFSLDQPGGTLDLTLIRARLQEKLSPPYSSPQEFAQDVGRMFKQFNKLTEDKADVQSIIGLQRFFETRMNEAFGDTKFSAVLVEPPPMSLPGAGLSSQELSGGPGDGP
notes: KAP1 (TRIM28), human, UniProt Q13263, full length; also called hemagglutinin-tagged KAP1; TRIM28; source: E. coli BL-21 CodonPlus (DE3)-RP, purified (HisTrap, Ulp1, heparin, Sephacryl S-400)
binding result (FLAG-SMARCAD1 (WT)): binds
